Changes are numbered by the printed parent chain.
T1: DC-SIGN receptor on cells (K562/DC-SIGN) (human, UniProt Q9NNX6 1-404)
T1 construct: whole, on cells
T1 sequence (looked up): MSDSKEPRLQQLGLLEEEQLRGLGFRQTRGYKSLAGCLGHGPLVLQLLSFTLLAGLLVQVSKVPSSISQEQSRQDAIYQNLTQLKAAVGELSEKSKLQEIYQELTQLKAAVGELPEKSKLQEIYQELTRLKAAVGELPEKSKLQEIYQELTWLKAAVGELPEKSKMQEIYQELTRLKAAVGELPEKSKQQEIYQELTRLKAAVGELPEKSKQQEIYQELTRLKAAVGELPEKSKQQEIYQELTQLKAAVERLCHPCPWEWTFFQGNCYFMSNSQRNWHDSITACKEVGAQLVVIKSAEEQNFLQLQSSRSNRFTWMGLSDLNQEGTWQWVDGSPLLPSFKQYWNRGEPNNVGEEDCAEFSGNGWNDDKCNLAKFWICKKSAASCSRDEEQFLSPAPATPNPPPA

T2: recombinant human DC-SIGN (human, UniProt Q9NNX6 62-404)
T2 construct: Added to plates coated with anti-human Fc, so probably an Fc fusion
T2 sequence (looked up): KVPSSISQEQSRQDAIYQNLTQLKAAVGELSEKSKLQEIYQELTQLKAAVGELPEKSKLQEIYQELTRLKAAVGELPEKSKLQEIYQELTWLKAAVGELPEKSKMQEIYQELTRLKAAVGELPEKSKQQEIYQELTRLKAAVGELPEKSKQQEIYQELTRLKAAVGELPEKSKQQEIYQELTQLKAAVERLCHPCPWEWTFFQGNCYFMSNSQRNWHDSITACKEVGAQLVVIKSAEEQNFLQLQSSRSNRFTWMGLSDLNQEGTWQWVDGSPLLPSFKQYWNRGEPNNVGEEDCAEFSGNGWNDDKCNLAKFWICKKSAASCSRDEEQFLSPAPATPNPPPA

T3: recombinant human L-SIGN (L-SIGNFc fusion protein) (human, UniProt Q9H2X3 78-399)
T3 construct: also called DC-SIGNR; human DC-SIGNR; not shown: Fc part of the fusion
T3 sequence (looked up): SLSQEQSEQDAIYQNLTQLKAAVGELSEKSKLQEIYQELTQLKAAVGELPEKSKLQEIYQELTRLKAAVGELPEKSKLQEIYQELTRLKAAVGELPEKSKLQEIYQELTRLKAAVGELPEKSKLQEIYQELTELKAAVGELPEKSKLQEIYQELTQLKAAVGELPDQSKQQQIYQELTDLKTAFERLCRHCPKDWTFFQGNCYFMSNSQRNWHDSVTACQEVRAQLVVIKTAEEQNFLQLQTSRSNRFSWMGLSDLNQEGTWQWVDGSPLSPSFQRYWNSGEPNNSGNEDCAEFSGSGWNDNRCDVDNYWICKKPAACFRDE

T4: L-SIGN receptor on cells (K562/L-SIGN) (human, UniProt Q9H2X3 1-399)
T4 construct: whole, on cells; also called L-SIGN on LSECs
T4 sequence (looked up): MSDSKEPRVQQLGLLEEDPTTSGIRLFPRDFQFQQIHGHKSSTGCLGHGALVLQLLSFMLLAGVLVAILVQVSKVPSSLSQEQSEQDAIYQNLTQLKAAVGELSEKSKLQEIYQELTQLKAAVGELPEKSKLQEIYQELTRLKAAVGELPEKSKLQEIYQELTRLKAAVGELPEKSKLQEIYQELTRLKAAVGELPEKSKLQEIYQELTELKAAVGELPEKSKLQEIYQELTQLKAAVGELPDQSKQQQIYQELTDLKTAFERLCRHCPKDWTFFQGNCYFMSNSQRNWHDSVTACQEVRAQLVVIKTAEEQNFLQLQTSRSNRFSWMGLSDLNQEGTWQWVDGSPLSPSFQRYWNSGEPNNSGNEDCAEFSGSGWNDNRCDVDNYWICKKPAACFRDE

B1: L-SIGN Fab clone C7 (soluble, purified) (Fab, V domains shown)
VH: EVQLQQSGPELEKPGASVKISCKASGYSFTGYNMNWVKQSSGKSLEWIGNFDPYYGVITYNQKFKGKATLTVDKSSSTAYMQLKSLTSEDSAVYYCARTATALYTMDYWGQGTSVTVSS
VL: EIVLTQSPAIMSASPGEKVTMTCRASSSVSSSYLHWYQQKSGASPKLWIYSTSNLASGVPARFSGSGSGTSYSLTISSVEAEDAATYYCQQYSGYPLTFGSGTKLEIK
B2: IgG1k clone A10 (Fab, V domains shown)
VH: B1 VH with S41N, F51I, V57D
VL: EIVLTQSPAIMSASLGERVTMTCTASSSVSSSYLHWYQQKPGSSPKLWIYSTSNLASGVPARFSGSGSGTSYSLTISSMEAEDAATYYCHQYHRSPQTFGGGTKLEIK
notes: phage-Fab screening
B3: IgG1k clone B7 (Fab, V domains shown)
VH: B1 VH
VL: B1 VL
notes: phage-Fab screening
B4: IgG1k clone C7 (phage-Fab screening) (Fab, V domains shown)
VH: B1 VH
VL: B1 VL
B5: IgG1k clone D8 (Fab, V domains shown)
VH: B1 VH with S41N, F51I, V57G, I58S, T59S
VL: B1 VL with L97G, S101G
notes: phage-Fab screening

Molecular target: T1, DC-SIGN receptor on cells (K562/DC-SIGN)
Assay: flow cytometry, K562/DC-SIGN cells

Row | Binder | binding result
1 | B1 | no binding (tested: 20 ug/ml)

Molecular target: T2, recombinant human DC-SIGN
Assay: ELISA, recombinant DC-SIGN

Row | Binder | OD405 [OD405]
2 | B2 | 0.1
3 | B3 | 0.1
4 | B4 | 0.1
5 | B5 | 0.1

Molecular target: T3, recombinant human L-SIGN (L-SIGNFc …)
Assay: ELISA, recombinant L-SIGN

Row | Binder | OD405 [OD405]
6 | B2 | 2.9
7 | B3 | 2.7
8 | B4 | 3.5
9 | B5 | 2.1

Molecular target: T4, L-SIGN receptor on cells (K562/L-SIGN)
Assay: flow cytometry, K562/L-SIGN cells

Row | Binder | Geo. Mean Fluorescence
10 | B2 | 21.3
11 | B3 | 90.9
12 | B4 | 101
13 | B5 | 17.3

Source: patent US20050281828A1 (published 2005)
